# Results as given in patent US11485792B2, “Antibodies, uses thereof and conjugates thereof” (Polytherics Limited, priority 2016, dated 2022).
# What was measured:
# PC-3 cells = assay: In vitro cell viability assay (CellTiter Glo), PC-3 (PSMA-negative control); format: cell-based; settings: Example 16; PSMA-negative PC-3 (negative control), 96 h
# Text: Loss of tumour cell viability following treatment with cytotoxic drugs or ADCs in vitro can be measured by growing cell lines in the presence of increasing concentrations of drugs or ADCs and quantifying the loss of proliferation or metabolic activity using CellTiter Glo® Luminescence reagent (Promega Corp. Technical Bulletin TB288; Lewis Phillips G. D, Cancer Res 2008; 68:9280-9290). The protocol describes cell seeding, drug treatment and determination of the cell viability in reference to untreated cells based on ATP synthesis, which is directly related to the number of cells present in the well.
# PSMA-positive LNCaP (clone FGC) and C4-2 cells, as well as PSMA-negative PC-3 cells were detached with TrypLE and resuspended in complete medium. Cells were counted using disposable Neubauer counting chambers and cell density adjusted to 10×10^4 cells/mL for LNCaP, 2×10^4 cells/mL for C4-2 and 1×10^4 cells/mL for PC-3 respectively. […]
# The cell viability assay was carried out using the Cell-Titer Glo® Luminescence reagent, as described by the manufacturer's instructions, (Promega Corp. Technical Bulletin TB288; Lewis Phillips G. D, Cancer Res 2008; 68:9280-9290). Luminescence was recorded using a plate reader (e.g. Molecular Devices Spectramax M3 plate reader), and data subsequently analysed using a four parameter non-linear regression model. […]
# [1] = Heat stress test with SEC analysis of aggregation; format: physicochemical
# Procedure: Antibody samples (0.5 mg/mL in PBS) were incubated at 75° C. for 30 min followed by incubation in an ice-bath for 5 min prior to being analysed for their extent of aggregation. Analysis of antibody solutions was carried out by Size Exclusion Chromatography (SEC) and by turbidity measurements.
# SEC was performed using a TOSOH Bioscience TSK gel Super SW 3000 column. UV absorbance at 280 nm was monitored during an isocratic elution with a 0.2 M Potassium phosphate buffer, pH 6.8 (0.2 M potassium chloride and 15% isopropanol). The elution times and number of peaks indicate whether the sample contains aggregated, degraded or native antibody. The % area under the curve (Abs280) was used to determine the quantity of each species present in the SEC analysis.
# [2] = Fluorescence-based thermal-shift assay (Sypro Orange); format: physicochemical
# Procedure: Antibody was diluted to 1.5 mg/mL with DPBS, pH 7.1-7.5, and the concentration determined by measuring OD at 280 nm using a Nanodrop instrument. SEC analysis was carried out prior to thermal-shift analysis to confirm that over 99% of each antibody was present in their native form.
# An RT-PCR instrument (StepOnePlus, Applied Biosystems) was set-up for a fluorescence-based thermal-shift assay using Sypro Orange dye as a fluorescent reporter. The assay was set-up in a PCR 96 well plate with five replicates per antibody sample and a final reaction volume of 20 μL per well. 13.5 μL of DPBS was pipetted in each well followed by the addition of 4 μL of antibody. […] Fluorescence data was collected throughout the temperature ramp, using an excitation filter at 470 nm and emission filter at 610 nm. […] The melting curves generated by the instrument software during the thermal unfolding of the antibodies result from the plotting of fluorescence vs. temperature. The melting temperature (Tm), is the temperature at which half of the antibody molecules are unfolded, (indicated by a 50% increase in fluorescence), and can be determined from the inflection point of the melting curve. The Tms are conventionally calculated by plotting a derivative plot. This is the change in fluorescence divided by the […] (the change rate) plotted on the Y-axis versus temperature on the X-axis. […]
# [3] = post stress test: 0.5 mg/mL in PBS, 75° C. for 30 min, then ice-bath 5 min, SEC
molecule,measurement,setting,value
"ADC 34 (conjugate, non-natural residues) heavy: QVQLVESGGGVVQPGRSLRLSCAASGFTFSNYVMHWVRQAPGKGLEWVAIIWYDGSNKYYADSVKGRFTISRDNSKNTLYLQMNSLRAEDTAVYYCAGGYNWNYEYHYYGMDVWGQGTTVTVSS light: DIQMTQSPSSLSASVGDRVTITCRASQGITNYLAWFQQKPGKAPKSLIYAASSLQSGVPSKFSGSGSGTDFSLTISSLQPEDFATYYCQQYNSYPITFGQGTRLEIK",IC50,PC-3 cells,> 50 nM
"AB-P2: prior art anti-PSMA antibody, heavy and light chain SEQ ID No 37 and 38 (antibody, V domains shown) VH: MELGLRWVLLVALLRGVQCQVQLVESGGGVVQPGRSLRLSCAASGFTFSNYVMHWVRQAPGKGLEWVAIIWYDGSNKYYADSVKGRFTISRDNSKNTLYLQMNSLRAEDTAVYYCAGGYNWNYEYHYYGMDVWGQGTTVTVSS VL: MRVPAQLLGLLLLCFPGARCDIQMTQSPSSLSASVGDRVTITCRASQGITNYLAWFQQKPGKAPKSLIYAASSLQSGVPSKFSGSGSGTDFSLTISSLQPEDFATYYCQQYNSYPITFGQGTRLEIK",Ab in aggregated form (%),[1]; [3],100%
same,Ab in native conformation (%),[1]; [3],0%
same,stability in heat stress SEC analysis (in words),[1]; propensity to aggregate upon heating and cooling,less stable than AB-03
same,Tm1 (° C.),[2]; first transition peak: unfolding of the CH2 and Fab domains,68.9 ± 0.1 °C
same,Tm2 (° C.),[2]; second transition peak: unfolding of the CH3 domain,75.2 ± 0.1 °C
